These results are taken from the supplement of paper PMC9112550, “Optimization of the antimicrobial peptide Bac7 by deep mutational scanning” (BMC Biology, 2022).

For the data set, the system named is Escherichia coli TOP10. As to the kind of experiment: shrunken log2 fold change of peptide-encoding DNA abundance (4.5 h post-induction vs induction); higher = less antimicrobial activity (less host growth inhibition). The conditions noted are these: time post-induction: 4.5 h; library: site-saturation at positions 5, 18, 19, 20.
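Further: peptides expressed intracellularly from a pBAD plasmid library in pooled LB shake-flask culture, induced with 0.3% L-arabinose, DNA abundance read by NGS, three biological replicates, DESeq2 with apeglm shrinkage.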

Turning to RRIRSRPPRLPRPRPRPWPNPRP, the “shrunken log2 fold change” value was -0.13.
Then RRIRERPPRLPRPRPRPVKVPRP, with -0.205; and RRIRQRPPRLPRPRPRPKPEPRP, with -0.0759; and RRIRCRPPRLPRPRPRPMSGPRP, with 0.198.
With RRIRIRPPRLPRPRPRPQTKPRP, the “shrunken log2 fold change” value is 0.13.
Then RRIRIRPPRLPRPRPRPCAFPRP, with -0.1; and RRIRQRPPRLPRPRPRPKLRPRP, with -0.0665; and RRIRPRPPRLPRPRPRPGSMPRP, with -0.149.
As for RRIRNRPPRLPRPRPRPIQRPRP, the “shrunken log2 fold change” value stood at 0.00743.
For RRIRMRPPRLPRPRPRPVEIPRP, the “shrunken log2 fold change” value came out at 0.00438.
Turning to RRIRNRPPRLPRPRPRPESIPRP, the “shrunken log2 fold change” value was -0.24.
Then RRIRKRPPRLPRPRPRPYIDPRP, with -0.194; and RRIRIRPPRLPRPRPRPNEQPRP, with 0.0369; and RRIRTRPPRLPRPRPRPHGNPRP, with -0.718.
Then RRIRVRPPRLPRPRPRPKCSPRP, with -0.065.
Then RRIRWRPPRLPRPRPRPPPVPRP, with 0.931; and RRIRNRPPRLPRPRPRPWVCPRP, with 0.037.
On to RRIRWRPPRLPRPRPRPYYVPRP, for which the “shrunken log2 fold change” value was -0.213.
In the case of RRIRPRPPRLPRPRPRPVNVPRP, the “shrunken log2 fold change” value is -0.326.
Take RRIRWRPPRLPRPRPRPDSTPRP: the “shrunken log2 fold change” value is -0.0382.
On to RRIRNRPPRLPRPRPRPKITPRP, for which the “shrunken log2 fold change” value was -0.367.
Take RRIRSRPPRLPRPRPRPQAAPRP: the “shrunken log2 fold change” value is 0.544.
Then RRIRERPPRLPRPRPRPSYSPRP, with -0.147.
Then RRIRIRPPRLPRPRPRPETVPRP, with -0.344; and RRIRNRPPRLPRPRPRPPTSPRP, with 0.298; and RRIRHRPPRLPRPRPRPENKPRP, with -0.639.
With RRIRRRPPRLPRPRPRPQICPRP, the “shrunken log2 fold change” value is -0.0654.
Then RRIRNRPPRLPRPRPRPMLCPRP, with 0.0164.
As for RRIRFRPPRLPRPRPRPFIKPRP, the “shrunken log2 fold change” value was -0.648.
Then RRIRARPPRLPRPRPRPFVKPRP, with 0.0302.
Then RRIRIRPPRLPRPRPRPGKFPRP, with -0.0679; and RRIRDRPPRLPRPRPRPCINPRP, with 0.224; and RRIRTRPPRLPRPRPRPFYNPRP, with -0.755.
Then RRIRFRPPRLPRPRPRPMYGPRP, with -0.36; and RRIRWRPPRLPRPRPRPWPFPRP, with 0.481.
As to RRIRIRPPRLPRPRPRPHDKPRP, the “shrunken log2 fold change” value was -0.74.
Consider RRIRQRPPRLPRPRPRPVLYPRP, for which the “shrunken log2 fold change” value worked out at 0.0138.
Then RRIRTRPPRLPRPRPRPILSPRP, with -0.0676; and RRIRFRPPRLPRPRPRPLNAPRP, with -0.166.
For the sequence RRIRERPPRLPRPRPRPAPAPRP, the “shrunken log2 fold change” value worked out at 0.305.
Regarding RRIRHRPPRLPRPRPRPAWVPRP, the “shrunken log2 fold change” value was found to be 0.15.
Then RRIRTRPPRLPRPRPRPSDWPRP, with 0.0388; and RRIRCRPPRLPRPRPRPWDWPRP, with 0.313.
To RRIRIRPPRLPRPRPRPMFGPRP belongs -0.0865.
Then RRIRDRPPRLPRPRPRPASLPRP, with 0.416.
With RRIRFRPPRLPRPRPRPTKIPRP, the “shrunken log2 fold change” value stood at 0.359.
Regarding RRIRWRPPRLPRPRPRPRHRPRP, the “shrunken log2 fold change” value worked out at 0.138.
As to RRIRTRPPRLPRPRPRPIFGPRP, the “shrunken log2 fold change” value was -0.0261.
To RRIRHRPPRLPRPRPRPHMFPRP belongs -0.358; to RRIRWRPPRLPRPRPRPPCRPRP, -0.0876.
For RRIRVRPPRLPRPRPRPDSLPRP, the “shrunken log2 fold change” value was -0.416.
To RRIRQRPPRLPRPRPRPDEDPRP belongs -0.0326; to RRIRRRPPRLPRPRPRPRIGPRP, 0.0791.
As for RRIRHRPPRLPRPRPRPYMNPRP, the “shrunken log2 fold change” value was -1.04.
RRIRHRPPRLPRPRPRPMFIPRP: the “shrunken log2 fold change” value is -0.0886.
To RRIRHRPPRLPRPRPRPMGAPRP belongs 0.0492; to RRIRERPPRLPRPRPRPATKPRP, 0.156; to RRIRTRPPRLPRPRPRPDWQPRP, -0.0206.
Then RRIRCRPPRLPRPRPRPKHSPRP, with -0.401; and RRIRSRPPRLPRPRPRPQANPRP, with -0.0559.
Consider RRIRARPPRLPRPRPRPWRGPRP, for which the “shrunken log2 fold change” value was found to be 0.39.
To RRIRNRPPRLPRPRPRPIHQPRP belongs -0.189; to RRIRSRPPRLPRPRPRPEQDPRP, 0.206; to RRIRLRPPRLPRPRPRPGYAPRP, 0.119.
Then RRIRPRPPRLPRPRPRPANSPRP, with 0.00247; and RRIRHRPPRLPRPRPRPVAFPRP, with -0.187; and RRIRSRPPRLPRPRPRPYIEPRP, with -0.183.
Then RRIRNRPPRLPRPRPRPTNAPRP, with -0.182; and RRIRDRPPRLPRPRPRPMSFPRP, with -0.00238.
Take RRIRPRPPRLPRPRPRPTTHPRP: the “shrunken log2 fold change” value was found to be 0.0944.
Then RRIRCRPPRLPRPRPRPMPNPRP, with -0.368.
Then RRIRNRPPRLPRPRPRPDCEPRP, with 0.0108.
In the case of RRIRIRPPRLPRPRPRPTSVPRP, the “shrunken log2 fold change” value is -0.18.
Then RRIRERPPRLPRPRPRPCNVPRP, with -0.0745; and RRIRMRPPRLPRPRPRPYCPPRP, with -0.066.
To RRIRVRPPRLPRPRPRPIFTPRP belongs -0.0783; to RRIRERPPRLPRPRPRPLNGPRP, -0.254; to RRIRSRPPRLPRPRPRPAQCPRP, 0.0899.
As to RRIRNRPPRLPRPRPRPLRYPRP, the “shrunken log2 fold change” value was determined as 0.0165.
Then RRIRMRPPRLPRPRPRPGYQPRP, with -0.0727; and RRIRERPPRLPRPRPRPPCPPRP, with 1.27; and RRIRGRPPRLPRPRPRPVCRPRP, with 0.802.
In the case of RRIRNRPPRLPRPRPRPKQFPRP, the “shrunken log2 fold change” value was -0.214.
Turning to RRIRLRPPRLPRPRPRPPDYPRP, the “shrunken log2 fold change” value is -0.199.
Then RRIRSRPPRLPRPRPRPPIRPRP, with 0.129; and RRIRQRPPRLPRPRPRPIEGPRP, with 0.0763.
To RRIRDRPPRLPRPRPRPEDHPRP belongs 1.08; to RRIRSRPPRLPRPRPRPMCHPRP, -0.576; to RRIRGRPPRLPRPRPRPLWCPRP, 0.204.
Regarding RRIRSRPPRLPRPRPRPDINPRP, the “shrunken log2 fold change” value was -0.253.
Consider RRIRFRPPRLPRPRPRPASDPRP, for which the “shrunken log2 fold change” value is -0.32.
To RRIRARPPRLPRPRPRPYQDPRP belongs -0.00221; to RRIRLRPPRLPRPRPRPCTKPRP, -0.22; to RRIRVRPPRLPRPRPRPRKHPRP, 0.112.
To RRIRYRPPRLPRPRPRPTKDPRP belongs -1.04; to RRIRARPPRLPRPRPRPSPKPRP, 0.303; to RRIRSRPPRLPRPRPRPTCGPRP, 0.468.
Then RRIRPRPPRLPRPRPRPENQPRP, with 0.0738; and RRIRTRPPRLPRPRPRPGFNPRP, with -0.234.
Take RRIRTRPPRLPRPRPRPMSSPRP: the “shrunken log2 fold change” value is -0.00458.
To RRIRHRPPRLPRPRPRPYGPPRP belongs -0.311; to RRIRKRPPRLPRPRPRPQHCPRP, -0.0588; to RRIRKRPPRLPRPRPRPIVEPRP, 0.00111.
Consider RRIRYRPPRLPRPRPRPFEWPRP, for which the “shrunken log2 fold change” value was 0.0273.
In the case of RRIRRRPPRLPRPRPRPMGDPRP, the “shrunken log2 fold change” value is -0.251.
Regarding RRIRKRPPRLPRPRPRPEANPRP, the “shrunken log2 fold change” value turned out to be 0.0281.
Then RRIRRRPPRLPRPRPRPYAIPRP, with -0.252; and RRIRYRPPRLPRPRPRPSWLPRP, with -0.78.
Then RRIRSRPPRLPRPRPRPNFFPRP, with 0.179.
Then RRIRGRPPRLPRPRPRPDNIPRP, with 0.119; and RRIRQRPPRLPRPRPRPIWWPRP, with 0.127; and RRIRIRPPRLPRPRPRPAELPRP, with -0.0331.
Turning to RRIRSRPPRLPRPRPRPAWTPRP, the “shrunken log2 fold change” value amounted to 0.0161.
Then RRIRNRPPRLPRPRPRPVPGPRP, with 0.176; and RRIRCRPPRLPRPRPRPPNRPRP, with 0.444; and RRIRERPPRLPRPRPRPNYWPRP, with -0.344.
Then RRIRARPPRLPRPRPRPYSVPRP, with -0.248; and RRIRQRPPRLPRPRPRPEWKPRP, with -0.00192.
To RRIRMRPPRLPRPRPRPPQEPRP belongs 0.161; to RRIRHRPPRLPRPRPRPQHTPRP, -0.386.
RRIRDRPPRLPRPRPRPITTPRP: the “shrunken log2 fold change” value was determined as 0.0735.
Then RRIRKRPPRLPRPRPRPMSQPRP, with -0.0623.
Then RRIRNRPPRLPRPRPRPVGIPRP, with -0.2; and RRIRLRPPRLPRPRPRPPIEPRP, with -0.424; and RRIRIRPPRLPRPRPRPYEPPRP, with -0.21.
